According to PMC4490372, “Architecture of TFIIIC and its role in RNA polymerase III pre-initiation complex assembly” (Nature Communications, 2015):
Numbering of substitutions follows the chain as printed. Each block holds one binder with its values, some of them ahead of it.

What was measured:
τ131 (123–566) E497K [1] = biological target: T1, τ131 (123–566) E497K (S. cerevisiae, UniProt P33339 123-566, E497K); assay: ITC; MicroCal ITC200; 15 μM τ138 in the cell, 150 μM τ131 in the syringe; 20 mM Tris pH 7.5, 150 mM NaCl, 2 mM β-mercaptoethanol; 25 °C; conditions: both partners purified
T1 construct: source: E. coli, purified by the same method as the wild type; not shown: His6, N-terminal, cleaved
T1 sequence (looked up): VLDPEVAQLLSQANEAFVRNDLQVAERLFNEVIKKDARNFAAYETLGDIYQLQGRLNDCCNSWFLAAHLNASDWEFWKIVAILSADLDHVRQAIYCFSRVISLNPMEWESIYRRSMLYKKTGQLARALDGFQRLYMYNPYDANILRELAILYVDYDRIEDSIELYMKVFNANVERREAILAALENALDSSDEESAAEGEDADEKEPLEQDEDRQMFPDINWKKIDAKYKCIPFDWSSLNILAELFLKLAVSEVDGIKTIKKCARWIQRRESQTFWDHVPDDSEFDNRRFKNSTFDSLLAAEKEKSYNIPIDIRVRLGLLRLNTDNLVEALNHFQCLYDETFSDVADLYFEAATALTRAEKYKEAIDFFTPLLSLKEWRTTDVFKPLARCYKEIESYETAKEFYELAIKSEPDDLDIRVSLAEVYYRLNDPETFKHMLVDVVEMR

[2] = biological target: T2, τ131 (123–566), TPR array, wild type (S. cerevisiae, UniProt P33339 123-566); assay: as above; conditions: both partners purified
T2 construct: also called τ131 TPR array; source: E. coli BL21 Star (DE3) pRARE, purified (Ni-NTA, TEV cleavage, S200 SEC); not shown: His6, N-terminal, cleaved
T2 sequence (looked up): T1 sequence (looked up) with K375E

τ131 (123–566) E498K [3] = biological target: T3, τ131 (123–566) E498K (S. cerevisiae, UniProt P33339 123-566, E498K); assay: as above; conditions: both partners purified
T3 construct: source: E. coli, purified by the same method as the wild type; not shown: His6, N-terminal, cleaved
T3 sequence (looked up): T1 sequence (looked up) with K375E, E376K

τ131 (123–566) E472K [4] = biological target: T4, τ131 (123–566) E472K (S. cerevisiae, UniProt P33339 123-566, E472K); assay: as above; conditions: both partners purified
T4 construct: source: E. coli, purified by the same method as the wild type; not shown: His6, N-terminal, cleaved
T4 sequence (looked up): T1 sequence (looked up) with E350K, K375E

τ131 (123–566) E498K [5] = biological target: T5, τ131 (123–566) E498K (S. cerevisiae, UniProt P33339 123-566, E498K); assay: ITC
T5 sequence: T1 sequence (looked up) with K375E, E376K

τ131 (123–566) E497K [6] = biological target: T6, τ131 (123–566) E497K (S. cerevisiae, UniProt P33339 123-566, E497K); assay: ITC
T6 sequence: T1 sequence (looked up)

τ131 (123–566) E472K [7] = biological target: T7, τ131 (123–566) E472K (S. cerevisiae, UniProt P33339 123-566, E472K); assay: ITC
T7 sequence: T1 sequence (looked up) with E350K, K375E

[8] = biological target: T8, τ138 (Tfc3), τB subunit of endogenous S. cerevisiae TFIIIC (S. cerevisiae, UniProt P34111 1-1160); assay: cross-linking; XL-MS: purified endogenous TFIIIC (30 μg, 1 μg/μl) cross-linked with H12/D12 DSS to 2 mM, 40 min at 37 °C; ld-score >25; conditions: both partners purified
T8 construct: τ138 (Tfc3), subunit of S. cerevisiae TFIIIC, endogenous subunit in the purified complex; source: endogenous, purified from S. cerevisiae strain SC2342 as part of TFIIIC (TAP tag on τ60)
T8 sequence (looked up): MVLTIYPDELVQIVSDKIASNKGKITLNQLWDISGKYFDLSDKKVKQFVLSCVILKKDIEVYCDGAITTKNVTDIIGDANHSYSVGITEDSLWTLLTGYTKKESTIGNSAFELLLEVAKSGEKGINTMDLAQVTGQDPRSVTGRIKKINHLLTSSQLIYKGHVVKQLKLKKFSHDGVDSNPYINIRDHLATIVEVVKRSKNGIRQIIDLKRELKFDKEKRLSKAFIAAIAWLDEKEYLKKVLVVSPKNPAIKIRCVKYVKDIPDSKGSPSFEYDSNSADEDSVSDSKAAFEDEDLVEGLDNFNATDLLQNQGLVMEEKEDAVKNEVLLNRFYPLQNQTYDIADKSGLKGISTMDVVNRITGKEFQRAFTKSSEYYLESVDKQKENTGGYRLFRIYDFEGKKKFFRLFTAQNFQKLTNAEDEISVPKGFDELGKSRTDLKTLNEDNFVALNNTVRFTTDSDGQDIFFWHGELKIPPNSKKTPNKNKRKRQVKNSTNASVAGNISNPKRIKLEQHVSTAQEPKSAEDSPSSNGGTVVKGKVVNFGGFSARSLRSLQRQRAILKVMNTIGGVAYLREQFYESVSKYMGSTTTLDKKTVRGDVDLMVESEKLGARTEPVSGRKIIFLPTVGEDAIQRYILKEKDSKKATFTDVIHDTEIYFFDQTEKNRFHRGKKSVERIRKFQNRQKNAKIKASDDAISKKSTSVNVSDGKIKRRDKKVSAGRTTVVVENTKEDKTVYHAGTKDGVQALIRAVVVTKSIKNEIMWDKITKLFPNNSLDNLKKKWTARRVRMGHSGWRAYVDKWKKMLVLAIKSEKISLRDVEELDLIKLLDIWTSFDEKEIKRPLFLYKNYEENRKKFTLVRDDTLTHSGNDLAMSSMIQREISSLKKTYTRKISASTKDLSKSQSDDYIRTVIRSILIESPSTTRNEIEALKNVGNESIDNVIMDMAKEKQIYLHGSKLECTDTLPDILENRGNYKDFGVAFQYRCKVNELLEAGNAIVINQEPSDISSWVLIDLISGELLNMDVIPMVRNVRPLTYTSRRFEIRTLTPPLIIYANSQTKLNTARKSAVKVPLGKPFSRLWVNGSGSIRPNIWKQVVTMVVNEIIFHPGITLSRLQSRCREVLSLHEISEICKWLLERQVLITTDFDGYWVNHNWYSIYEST

binding result (τ131 (123–566) E497K [1]): binds | Kd [2]: ~80 nM | binding result (τ131 (123–566) E498K [3]): binds | binding result (τ131 (123–566) E472K [4]): binds | Kd (τ131 (123–566) E498K [5]): 833 nM | Kd (τ131 (123–566) E497K [6]): 89 nM | Kd (τ131 (123–566) E472K [7]): 833 nM
B1: τ138 (641–693), τ131-Interaction Region (τIR) (domain or fragment, S. cerevisiae, UniProt P34111 641-693, looked up)
chain: SKKATFTDVIHDTEIYFFDQTEKNRFHRGKKSVERIRKFQNRQKNAKIKASDD
notes: The cloning and tag of this construct as used for ITC and SEC are not described; also called τ138 (τIR); unstructured region of τ138; source: purified; expression of this construct not described

Kd [2]: ~2600 nM
B2: τ138 construct with residues 682–693 removed (domain or fragment)
chain: SARSLRSLQRQRAILKVMNTIGGVAYLREQFYESVSKYMGSTTTLDKKTVRGDVDLMVESEKLGARTEPVSGRKIIFLPTVGEDAIQRYILKEKDSKKATFTDVIHDTEIYFFDQTEKNRFHRGKKSVERIRKFQN

binding result [8]: binds
B3: τ131 (Tfc4), τA subunit of endogenous S. cerevisiae TFIIIC (natural protein, UniProt P33339 1-1025, looked up)
chain: MAAGKLKKEQQNQSAERESADTGKVNDEDEEHLYGNIDDYKHLIQDEEYDDEDVPHDLQLSEDEYNSERDSSLLAEFSDYGEISEDDEEDFMNAIREASNFKVKKKKKNDKGKSYGRQRKERVLDPEVAQLLSQANEAFVRNDLQVAERLFNEVIKKDARNFAAYETLGDIYQLQGRLNDCCNSWFLAAHLNASDWEFWKIVAILSADLDHVRQAIYCFSRVISLNPMEWESIYRRSMLYKKTGQLARALDGFQRLYMYNPYDANILRELAILYVDYDRIEDSIELYMKVFNANVERREAILAALENALDSSDEESAAEGEDADEKEPLEQDEDRQMFPDINWKKIDAKYKCIPFDWSSLNILAELFLKLAVSEVDGIKTIKKCARWIQRRESQTFWDHVPDDSEFDNRRFKNSTFDSLLAAEKEKSYNIPIDIRVRLGLLRLNTDNLVEALNHFQCLYDETFSDVADLYFEAATALTRAEKYKEAIDFFTPLLSLEEWRTTDVFKPLARCYKEIESYETAKEFYELAIKSEPDDLDIRVSLAEVYYRLNDPETFKHMLVDVVEMRKHQVDETLHRISNEKSSNDTSDISSKPLLEDSKFRTFRKKKRTPYDAERERIERERRITAKVVDKYEKMKKFELNSGLNEAKQASIWINTVSELVDIFSSVKNFFMKSRSRKFVGILRRTKKFNTELDFQIERLSKLAEGDSVFEGPLMEERVTLTSATELRGLSYEQWFELFMELSLVIAKYQSVEDGLSVVETAQEVNVFFQDPERVKMMKFVKLAIVLQMDDEEELAENLRGLLNQFQFNRKVLQVFMYSLCRGPSSLNILSSTIQQKFFLRQLKAFDSCRYNTEVNGQASITNKEVYNPNKKSSPYLYYIYAVLLYSSRGFLSALQYLTRLEEDIPDDPMVNLLMGLSHIHRAMQRLTAQRHFQIFHGLRYLYRYHKIRKSLYTDLEKQEADYNLGRAFHLIGLVSIAIEYYNRVLENYDDGKLKKHAAYNSIIIYQQSGNVELADHLMEKYLSI
notes: τ131 (Tfc4), subunit of S. cerevisiae TFIIIC, endogenous subunit in the purified complex; Endogenous subunit; source: endogenous, purified from S. cerevisiae strain SC2342 as part of TFIIIC (TAP tag on τ60)

binding result [8]: binds
B4: τ91 (Tfc6), τB subunit of endogenous S. cerevisiae TFIIIC (natural protein, UniProt Q06339 1-672, looked up)
chain: MAVIPAKKRGRPRKSVVAEVPYDSLASPVSENSGSKRPRRNASKKAVANFAQLVHAGRDDVINTTQVNNVDDTDDDDFVLNDEGDGEESDNVEIEFENELESTKNEVADLNSSGSGASVRPSGRRNTVQKLRLKKNSTKNMKSSSPGSSLGQKGRPIRLLKDLSSARDKIERIYGLNKEKLLLLAKVKEGFETSVFDFPFKNIQPDSPYFVCLDPPCKKESAYNKVIGDKNRTVYHEINKTEFENMIKLRTKRLKLLIGEVDAEVSTGDKIEFPVLANGKRRGFIYNVGGLVTDIAWLNIEENTDIGKDIQYLAVAVSQYMDEPLNEHLEMFDKEKHSSCIQIFKMNTSTLHCVKVQTIVHSFGEVWDLKWHEGCHAPHLVGCLSFVSQEGTINFLEIIDNATDVHVFKMCEKPSLTLSLADSLITTFDFLSPTTVVCGFKNGFVAEFDLTDPEVPSFYDQVHDSYILSVSTAYSDFEDTVVSTVAVDGYFYIFNPKDIATTKTTVSRFRGSNLVPVVYCPQIYSYIYSDGASSLRAVPSRAAFAVHPLVSRETTITAIGVSRLHPMVLAGSADGSLIITNAARRLLHGIKNSSATQKSLRLWKWDYSIKDDKYRIDSSYEVYPLTVNDVSKAKIDAHGINITCTKWNETSAGGKCYAFSNSAGLLTLEYLS
notes: τ91 (Tfc6), subunit of S. cerevisiae TFIIIC, endogenous subunit in the purified complex; source: endogenous, purified from S. cerevisiae strain SC2342 as part of TFIIIC (TAP tag on τ60)
